Assay [1] concerns the target growth differentiation factor 5 (GDF5), wild type (UniProt P43026). The assay is described as follows: SPR; ProteOn XPR36; BMP2 (570 RU), GDF5 (470 RU), TGF-β2 (300 RU) or activin A (350 RU) amine-coupled to a GLC sensor chip; analyte perfused (RGMB 50 to 1.56 nM at 150 or 100 µl/min; BMPR1A 1000 to 31.25 nM at 100 µl/min); 20 mM HEPES pH 7.4, 500 mM NaCl, 3.4 mM EDTA, 0.005% (v/v) Tween 20; 25 °C; Langmuir 1:1 kinetic fit (parameters local for RGMB), Kd = koff/kon; apparent. Background: SPR reads the build-up and loss of mass on a sensor chip optically.
Target sequence in this assay (P43026 28-501): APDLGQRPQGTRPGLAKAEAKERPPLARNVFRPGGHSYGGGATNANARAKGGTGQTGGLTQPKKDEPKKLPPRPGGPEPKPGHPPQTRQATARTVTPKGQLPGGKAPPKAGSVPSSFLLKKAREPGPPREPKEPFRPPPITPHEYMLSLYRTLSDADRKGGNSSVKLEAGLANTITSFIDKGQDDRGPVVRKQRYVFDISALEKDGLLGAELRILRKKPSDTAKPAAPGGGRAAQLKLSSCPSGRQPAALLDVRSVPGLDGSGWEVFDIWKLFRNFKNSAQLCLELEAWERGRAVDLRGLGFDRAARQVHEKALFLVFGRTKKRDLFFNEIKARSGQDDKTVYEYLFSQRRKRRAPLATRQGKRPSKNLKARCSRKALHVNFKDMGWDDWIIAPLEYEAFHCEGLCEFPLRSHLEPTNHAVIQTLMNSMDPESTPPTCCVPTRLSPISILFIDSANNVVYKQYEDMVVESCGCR

In assay [2] the target is bone morphogenetic protein 2 (BMP2) (UniProt P12643). The assay is described as follows: SPR.
Assay [3] addresses growth differentiation factor 5 (GDF5), wild type (UniProt P43026). The assay is described as follows: SPR; BMPR1A with BMP2, GDF5 and GDF5 variants; set-up not told for this pair in the main text (values in the discussion, SI Appendix Table S1); taken as the ProteOn set-up with immobilized ligands.
Target sequence in this assay (P43026 382-501): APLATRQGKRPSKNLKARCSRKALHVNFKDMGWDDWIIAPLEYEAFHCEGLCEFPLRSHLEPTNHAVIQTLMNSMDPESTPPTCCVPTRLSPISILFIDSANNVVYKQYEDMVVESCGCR
Assay [4] has the same target. The assay is described as follows: SPR; Biacore T200, 25 °C; GDF5 amine-coupled to a CM5 chip (830, 970 or 1370 RU); RGMBND variants or BSA as analytes; 0.5 M NaCl, 20 mM HEPES pH 7.4, 0.05% (v/v) Tween 20; Kd from the dose-dependency of equilibrium binding, 1:1 Langmuir isotherm.
Target sequence in this assay (P43026 28-501): as the sequence (P43026 28-501) above
Assay [5] concerns the target bone morphogenetic protein 2 (BMP2) (UniProt P12643).
The target in assay [6] is growth differentiation factor 5 (GDF5), wild type (UniProt P43026). Briefly: SPR; ProteOn XPR36; BMP2 (570 RU) or GDF5 (470 RU) amine-coupled to a GLC sensor chip; ActR2b ectodomain perfused at 6 µM to 187.5 nM, 100 µl/min; 0.005% (v/v) Tween 20 buffer; Kd from the dose-dependency of equilibrium binding, one-site model; apparent.
Target sequence in this assay (P43026 28-501): as above
Assay [7] has the same target.
Target sequence in this assay (P43026 382-501): as the sequence (P43026 382-501) above
Assay [8] concerns the target bone morphogenetic protein 2 (BMP2) (UniProt P12643). The assay is described as follows: SPR; ProteOn XPR36, 25 °C; BMP/TGF-β ligands immobilized on GLC chips by amine coupling, RGM proteins as analytes; 10 mM Hepes pH 7.4, 500 mM NaCl, 3.4 mM EDTA, 0.005% Tween20; 1:1 Langmuir kinetic fit, Kd = koff/kon; apparent Kd.
Assay [9] has as its target growth differentiation factor 5 (GDF5), wild type (UniProt P43026). The description is as above.
Target sequence in this assay (P43026 382-501): as above

What is called koff is a measure of how fast the partners let go of each other. The kon is a measure of how fast the partners come together.

Sequence of bone morphogenetic protein 2 (BMP2) (P12643 283-396): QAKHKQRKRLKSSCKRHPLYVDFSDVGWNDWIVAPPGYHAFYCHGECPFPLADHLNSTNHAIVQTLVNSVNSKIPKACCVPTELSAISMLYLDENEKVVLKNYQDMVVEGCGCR
Sequence of BMPR1A ectodomain protein (residues Gln24 to Arg152) (P36894 24-152): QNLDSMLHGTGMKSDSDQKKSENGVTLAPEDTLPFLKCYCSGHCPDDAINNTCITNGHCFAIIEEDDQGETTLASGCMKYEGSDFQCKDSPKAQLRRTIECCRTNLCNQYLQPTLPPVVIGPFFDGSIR
Sequence of murine activin type-2 receptor ActR2b, soluble ectodomain (residues Gly20 to Glu127) (P27040 20-127): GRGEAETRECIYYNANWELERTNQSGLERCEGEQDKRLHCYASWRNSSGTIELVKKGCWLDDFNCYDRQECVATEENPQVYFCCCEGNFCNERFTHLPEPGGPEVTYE

As to “BMPR1A ectodomain protein (residues Gln24 to Arg152) (from UniProt P36894 24-152) (receptor)”, in [1], the koff amounted to 0.0048 s⁻¹ and the kon worked out at 90000 M⁻¹ s⁻¹.
As for “BMPR1A extracellular domain (BMPR1AECD, Thr55–Val141) (receptor)”, the Kd in [2] came out at 59 nM; in assay [3], 125 nM.
Consider RGMBND His106Arg (domain or fragment), for which the Kd in assay [4] was > 200000 nM.
In assay [5], “extracellular domain of human RGMB (RGMBECD, Gln53–Ser411) (domain or fragment)” yielded a BMP2 (3 nM) BMP-responsive luciferase reporter in LLC-PK1 cells expressing full-length membrane-anchored RGMB of 3 fold.
For the substance “murine activin type-2 receptor ActR2b, soluble ectodomain (residues Gly20 to Glu127) (from UniProt P27040 20-127)”, the Kd in [6] is 1300 nM.
Regarding “soluble RGMA extracellular domain (RGMAECD) for the ProteOn SPR studies (from UniProt Q96B86 48-424) (domain or fragment)”, the GDF5 (30 nM) BMP-responsive luciferase reporter in LLC-PK1 cells expressing full-length membrane-anchored RGMA in assay [7] stood at 2 fold.
With “soluble RGMB extracellular domain (RGMBECD) for the ProteOn SPR studies (from UniProt Q6NW40 46-413) (domain or fragment)”, the Kd was 4.2 nM in assay [8] and 2.7 nM in assay [9].
“soluble RGMC extracellular domain (RGMCECD) for the ProteOn SPR studies (from UniProt Q6ZVN8 36-400) (domain or fragment)” came in with a GDF5 (30 nM) BMP-responsive luciferase reporter in LLC-PK1 cells expressing full-length membrane-anchored RGMC in assay [7] of 2 fold.

These data come from paper PMC7354924.
